Tests used:
[1] = molecular target: T1, His6-TEV-MSP1D1 (CA15914) (human Apo A-I derived, engineered, biotinylated with EZ-link NHS-Biotin for the BLI experiment only); assay: ELISA, periplasmic extract on coated MSP (1 µg/mL in 100 µL, Apo- and Nanodisc-state), EPEA-tag detection, OD405 after overnight
T1 construct: Membrane scaffold protein; The entry holds the 6xHis tag, the TEV cleavage site and MSP1D1; Tested in Apo-state (lipid free) and in Nanodisc-state (POPC nanodisc, two MSP1D1 per nanodisc)
T1 chain: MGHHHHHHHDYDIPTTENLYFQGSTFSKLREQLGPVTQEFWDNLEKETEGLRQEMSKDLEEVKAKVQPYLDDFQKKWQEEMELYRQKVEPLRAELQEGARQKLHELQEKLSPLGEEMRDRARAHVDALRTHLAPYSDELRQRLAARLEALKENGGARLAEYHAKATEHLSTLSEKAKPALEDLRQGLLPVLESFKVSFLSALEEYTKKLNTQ
Protocol: (§1) Nanobodies were detected after 1 h (FIG. 2A) and overnight (FIG. 2B) subsequent incubation with a biotinylated CaptureSelect antibody and developed with a Streptavidin Alkaline Phosphatase conjugate.

[2] = molecular target: T2, His6-TEV-MSP2N2 (CA15915) (human Apo A-I derived, engineered, UniProt P02647 79-267, limits assumed); assay: as above
T2 construct: Membrane scaffold protein; The entry holds the 6xHis tag, the TEV cleavage site and MSP2N2; Tested in Apo-state, in Nanodisc-state, and as the belt of nanodiscs loaded with GABAAR-β3
Protocol: as §1

MSP1E3D1 = molecular target: T3, MSP1E3D1 (human Apo A-I derived, engineered); assay: ELISA on coated MSP variants, n=3
T3 construct: also called MSP1E1D3 MSP variant
T3 chain: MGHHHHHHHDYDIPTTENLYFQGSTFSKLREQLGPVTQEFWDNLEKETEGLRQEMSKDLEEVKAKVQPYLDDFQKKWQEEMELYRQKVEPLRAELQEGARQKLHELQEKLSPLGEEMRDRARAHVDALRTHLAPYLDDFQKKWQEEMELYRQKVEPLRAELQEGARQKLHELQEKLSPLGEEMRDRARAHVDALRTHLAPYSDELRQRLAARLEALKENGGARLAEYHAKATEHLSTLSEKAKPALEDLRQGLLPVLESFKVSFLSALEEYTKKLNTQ

[3] = molecular target: T1, His6-TEV-MSP1D1 (CA15914); assay: ELISA, purified MegaBody on coated MSP (Apo- or Nanodisc-state) vs non-coated wells, A405
[4] = molecular target: T2, His6-TEV-MSP2N2 (CA15915); assay: as above
[5] = molecular target: T1, His6-TEV-MSP1D1 (CA15914); assay: BLI (OctetRED96), biotinylated Apo MSP1D1 on streptavidin sensors, 1:2 binding model
[6] = molecular target: T1, His6-TEV-MSP1D1 (CA15914); assay: BLI (OctetRED96), biotinylated MSP1D1 (Apo-state) on streptavidin sensors, 1:2 binding model, 30 °C; biotinylated Apo-state MSP1D1 on the SA sensor; 30 C; 1:2 binding model
[7] = molecular target: T1, His6-TEV-MSP1D1 (CA15914); assay: ELISA, purified MegaBody 200 nM on coated MSP (1 µg/mL in 100 µL, Apo- and Nanodisc-state), EPEA-tag detection, OD405 after 1 h
[8] = molecular target: T2, His6-TEV-MSP2N2 (CA15915); assay: as above

B1: MP1522_A12 Nanobody (CA15885) (VHH)
VHH: QVQLVESGGGLVQAGGSLRLSCAASGRTFSSYNMAWFRQVPGKEREFVASIARTGSGTYYRDSVKGRFTISRDNAKNTVYLQMNSLKPQDTAVYYCTAGGSLATISDYWGQGTQVTVSS
notes: Entry includes 6xHis and EPEA tags; tested as periplasmic extract
binding result [1]: binds
binding result [2]: binds

B2: MbNbF3^c7HopQ MegaBody (CA15192) (other)
chain: QVQLVESGGGLVQTKTTTSVIDTTNDAQNLLTQAQTIVNTLKDYCPILIAKSSSSNGGTNNANTPSWQTAGGGKNSCATFGAEFSAASDMINNAQKIVQETQQLSANQPKNITQPHNLNLNSPSSLTALAQKMLKNAQSQAEILKLANQVESDFNKLSSGHLKDYIGKCDASAISSANMTMQNQKNNWGNGCAGVEETQSLLKTSAADFNNQTPQINQAQNLANTLIQELGNNTYEQLSRLLTNDNGTNSKTSAQAINQAVNNLNERAKTLAGGTTNSPAYQATLLALRSVLGLWNSMGYAVICGGYTKSPGENNQKDFHYTDENGNGTTINCGGSTNSNGTHSYNGTNTLKADKNVSLSIEQYEKIHEAYQILSKALKQAGLAPLNSKGEKLEAHVTTSKYGSLRLSCAASGSGFGPNVMGWYRQAPGKRRELVATINRIGNINYGDSVKGRFTLSREIAVNTVYLQMNSLKPEDAANYYCYAAKYGVDYWGKGTQVTVSSHHHHHHEPEA
notes: MegaBody: c7HopQ scaffold inserted in the first β-turn of Nanobody MP1521_F3; Entry includes 6xHis and EPEA tags; also called MbF3^c7HopQ MegaBody
binding result (MSP1E3D1): binds
fold ELISA signal over no MSP [3]: ≥ 4 fold
fold ELISA signal over no MSP [4]: ≥ 4 fold
koff [5]: 0.00103 s⁻¹
kon [5]: 44000 M⁻¹ s⁻¹
Kd [6]: 23.5 nM

B3: MP1522_B7 Nanobody (CA15886) (VHH)
VHH: QVQLVESGGGLVQAGGSLRLSCAASGRSFSSYGMGWFRQAPGKEREFAAGITGTAGITYYTDSVKGRFTISRDNAKNTVYLQMNNLKPEDTAVYYCAAGLTSYAGRGAAGYDYWGQGTQVTVSS
notes: as for B1
binding result [1]: binds
binding result [2]: binds

B4: MegaBody MbNb25^c7HopQ against GABAAR-β3 (other)
chain: QVQLVESGGGLVQTKTTTSVIDTTNDAQNLLTQAQTIVNTLKDYCPILIAKSSSSNGGTNNANTPSWQTAGGGKNSCATFGAEFSAASDMINNAQKIVQETQQLSANQPKNITQPHNLNLNSPSSLTALAQKMLKNAQSQAEILKLANQVESDFNKLSSGHLKDYIGKCDASAISSANMTMQNQKNNWGNGCAGVEETQSLLKTSAADFNNQTPQINQAQNLANTLIQELGNNTYEQLSRLLTNDNGTNSKTSAQAINQAVNNLNERAKTLAGGTTNSPAYQATLLALRSVLGLWNSMGYAVICGGYTKSPGENNQKDFHYTDENGNGTTINCGGSTNSNGTHSYNGTNTLKADKNVSLSIEQYEKIHEAYQILSKALKQAGLAPLNSKGEKLEAHVTTSKYGSLRLSCAASGHTFNYPIMGWFRQAPGKEREFVGAISWSGGSTSYADSVKDRFTISRDNAKNTVYLEMNNLKPEDTAVYYCAAKGRYSGGLYYPTNYDYWGQGTQVTVSSHHHHHHEPEA
notes: MegaBody derived from Nb25 with the c7HopQ scaffold
binding result (MSP1E3D1): no binding
binding result [7]: no binding (tested: 200 nM)
binding result [8]: no binding (tested: 200 nM)

— patent US20220380456A1 (UNITED KINGDOM RESEARCH AND INNOVATION, published 2022)
